{"source": "patent US9526766B2", "about": "“Potentiation of antibiotic treatment with a protein-lipid complex” (priority 2012, dated 2016)", "key": {"[1]": {"system": "Staphylococcus aureus", "assay": "MIC by broth microdilution, antibiotics with and without ALAFAC", "assay_type": "cell-based", "summary_of_the_method": "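Broth microdilution per CLSI in tryptic soy broth, two-fold antibiotic dilutions in triplicate with or without ALAFAC, inoculum 10^5 CFU/mL. Incubated 24 h at 37 °C with OD600 read every 5 min; MIC is lowest concentration showing no OD600 increase.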"}, "[2]": {"system": "Streptococcus pneumoniae", "assay": "Short-time kill assay on planktonic cultures", "assay_type": "cell-based", "settings": "for Short-time killing: ALAFAC 50 μg/ml, alone or combined"}, "[3]": {"system": "Staphylococcus aureus biofilms", "assay": "Static biofilm model, viable counts", "assay_type": "cell-based", "settings": "for Biofilm death / reduction in biofilm biomass: methicillin 1,000 μg/ml monotherapy, combination with 100 μg/ml ALAFAC", "experimental": "Static Biofilm Model. Staphylococci were grown in TSB to mid-logarithmic phase (OD600=0.5), washed, and resuspended in fresh pre-warmed medium to a density of 2×10^4 CFU in 500 μl volume, and suspensions were used to seed polystyrene 24-well plates. Bacteria were cultured at 37° C. for 12 hours, after which biofilms were washed with PBS to eliminate planktonic bacteria and were exposed to TSB with indicated concentrations of ALAFAC and/or antibiotics for 24 hours at 37° C. Biofilms were then washed in PBS, sonicated and detached by scraping the surface in the presence of 100 μL PBS followed by a rinse with 100 μL PBS. Collected cells were vortexed twice for 20 seconds at high speed and the dispersed biofilm cells were first observed by microscopy to ensure proper dispersion and then diluted in a 10-fold dilution series where 100 μl of each dilution was plated on blood agar plates to determine viable CFUs per ml after overnight growth at 37° C. Colony counts from plates carrying 20-200 colonies were used to determine the viable counts and are reported as the total number of colony-forming units per biofilm."}, "[4]": {"system": "S. pneumoniae nasopharyngeal colonization", "assay": "Murine nasopharyngeal colonization model, intranasal treatment", "assay_type": "in vivo, Streptococcus pneumoniae", "settings": "ALAFAC 50 μg, alone or combined", "experimental": "Methodology: Six-week-old female BALB/cByJ mice from Jackson Laboratories (Bar Harbor, Me., U.S.A.) were maintained in filter-top cages on standard laboratory chow and water ad libitum until use. Mice were colonized as described previously. In short, 20 μl of a bacterial suspension containing 5×10^6 CFUs of EF3030 pneumococci, 1×10^8 CFUs of SP670 pneumococci, or 5×10^7 NRS70 methicillin-resistant S. aureus in PBS were pipetted into the nares of non-anesthetized mice. […] Colonization burden was then assessed after euthanizing the animals by enumerating viable bacteria from harvested nasopharyngeal tissue after the nasal wash. Nasopharyngeal tissue was dissected out as described by removing the upper skull bone, and harvesting the tissue present in the nasal conchae with forceps. Bacterial load was measured by determining viable plate counts from the homogenized tissue.\nMice were colonized as described. In short, 20 μl of a bacterial suspension containing 5×10^6 CFUs of EF3030 pneumococci in PBS or 1×10^8 CFUs of SP670 pneumococci in PBS were pipetted into the nares of non-anesthetized mice. […] Colonization burden was then assessed after euthanizing the animals by enumerating viable bacteria both in a nasopharyngeal lavage obtained by injecting 100 μL PBS in the trachea of mice and collecting it as it flowed out the nares, and from harvested nasopharyngeal tissue after the nasal wash. Nasopharyngeal tissue was dissected out as described by removing the upper skull bone, and harvesting the tissue present in the nasal conchae with forceps. Bacterial load was measured by determining viable plate counts from the nasal lavage or from homogenized tissue."}}, "note": "Entries after “also recorded” stand apart in the source; their conditions may differ.", "data": [{"molecule": "ALAFAC: non-covalent complex of alpha-lactalbumin and fatty acid (oleic acid); labeled HAMLET or HL in drawings and tables (protein, UniProt P00709 20-142, looked up, complexed with oleic acid) Alpha-lactalbumin: KQFTKCELSQLLKDIDGYGGIALPELICTMFHTSGYDTQAIVENNESTEYGLFQISNKLWCKSSQVPQSRNICDISCDKFLDDDITDDIMCAKKILDIKGIDYWLAHKALCTEKLEQWLCEKL", "values": [{"measurement": "[HL] to sensitize", "setting": "[1]; 10307570, sensitive to methicillin", "value": 6, "unit": "µM"}, {"measurement": "[HL] to sensitize", "setting": "[1]; 11090306, sensitive to methicillin", "value": 0, "unit": "µM"}, {"measurement": "Additional ALAFAC required for equivalent adjuvant activity", "setting": "[1]; Mueller Hinton broth versus TSB", "value": "approximately 20%"}, {"measurement": "[HL] to sensitize", "setting": "[1]; NRS1, sensitive to gentamicin", "value": 48, "unit": "µM"}, {"measurement": "[HL] to sensitize", "setting": "[1]; NRS1, sensitive to methicillin", "value": 48, "unit": "µM"}, {"measurement": "[HL] to sensitize", "setting": "[1]; NRS1, sensitive to vancomycin", "value": 18, "unit": "µM"}, {"measurement": "[HL] to sensitize", "setting": "[1]; NRS70, sensitive to methicillin", "value": 3, "unit": "µM"}, {"measurement": "[HL] to sensitize", "setting": "[1]; NRS71, sensitive to methicillin", "value": 54, "unit": "µM"}, {"measurement": "[HL] to sensitize", "setting": "[1]; NRS100, sensitive to methicillin", "value": 18, "unit": "µM"}, {"measurement": "[HL] to sensitize", "setting": "[1]; NRS123, sensitive to erythromycin", "value": 0, "unit": "µM"}, {"measurement": "[HL] to sensitize", "setting": "[1]; NRS123, sensitive to methicillin", "value": 12, "unit": "µM"}, {"measurement": "[HL] to sensitize", "setting": "[1]; NRS384, sensitive to erythromycin", "value": 6, "unit": "µM"}, {"measurement": "[HL] to sensitize", "setting": "[1]; NRS384, sensitive to gentamicin", "value": 0, "unit": "µM"}, {"measurement": "[HL] to sensitize", "setting": "[1]; NRS384, sensitive to methicillin", "value": 6, "unit": "µM"}, {"measurement": "[HL] to sensitize", "setting": "[1]; NRS384, sensitive to vancomycin", "value": 0, "unit": "µM"}, {"measurement": "Concentration of ALAFAC alone without activity", "setting": "[1]; any of the S. aureus strains tested", "value": "exceeding 5,000 μg/ml"}, {"measurement": "ALAFAC concentration required to convert all antibiotic-resistant strains to sensitivity", "setting": "[1]; methicillin, gentamicin, erythromycin and vancomycin", "value": "at most 54 μM"}, {"measurement": "Short-time killing", "setting": "[2]; D39, 1 hour, gentamicin 50 μg/ml, 7.7 log10 inoculum", "value": "insignificant killing"}, {"measurement": "Short-time killing", "setting": "[2]; D39, 4 hours, erythromycin 200 μg/ml, 7.2 log10 inoculum", "value": "insignificant bactericidal activity"}, {"measurement": "Fold higher concentration of ALAFAC alone required for activity similar to the combination", "setting": "[2]; D39, versus 50 μg/ml ALAFAC + 20 μg/ml penicillin G, 4 hours", "value": "> 5", "unit": "fold"}, {"measurement": "Concentration required to eradicate each inoculum", "setting": "[2]; all pneumococcal strains, 1 hour", "value": "approximately 15 times the MIC"}, {"measurement": "Concentration to eradicate an inoculum of 10^8 pneumococci", "setting": "[2]; time-kill assay, 1 hour", "value": 300, "unit": "μg/ml"}, {"measurement": "Biofilm bactericidal activity, reduction in viable bacteria", "setting": "[3]; MRSA NRS 70 and MSSA 11090306 biofilms, 24 hours, ALAFAC 200 μg/mL (12 μM), methicillin 250 μg/mL (660 μM), alone or combined", "value": "failed to induce bactericidal activity"}, {"measurement": "Biofilm death / reduction in biofilm biomass", "setting": "[3]; MRSA NRS70 biofilm", "value": "no death"}, {"measurement": "Biofilm death / reduction in biofilm biomass", "setting": "[3]; MSSA 11090306 biofilm", "value": "no death"}, {"measurement": "Biofilm viability", "setting": "[3]; NRS 1 and NRS 384 biofilms, ALAFAC 500 μg/ml (30 μM), gentamicin 50 μg/ml (105 μM), alone or combined", "value": "Neither ALAFAC (500 μg/ml; 30 μM) nor gentamicin (50 μg/ml; 105 μM) had any effect"}, {"measurement": "Bacterial burden, nasopharyngeal tissue and nasal lavage", "setting": "[4]; mice colonized with EF3030 for 48 hours, single intranasal dose, gentamicin, 6 hours", "value": "no decrease in bacterial burden"}, {"measurement": "Colonization level / bacterial burden", "setting": "[4]; mice colonized with SP670 for 48 hours, penicillin up to 100 μg (5,000 μg/ml) intranasally, 12 hours", "value": "no effect; also recorded: no decrease in the pneumococcal burden"}]}]}
